Numbering of substitutions follows the chain as printed. Names may count otherwise. Blank lines part the entries; values can stand above or below the binder they belong to.
Key:
[1] = target: monoclonal antibody 7C11 (anti-Bla g 2); assay: competition ELISA; conditions: chain shown with the change, solid phase rBla g 2-N93Q, read off a plot
[2] = target: monoclonal antibody 7C11 (anti-Bla g 2); assay: ELISA dose-response; conditions: chain shown with the change, read off a plot
[3] = target: monoclonal antibody 4C3 (anti-Bla g 2); assay: competition ELISA; conditions: chain shown with the change, solid phase rBla g 2-N93Q, read off a plot
monoclonal antibody 4C3 (anti-Bla g 2), sequence (chain, as listed by the source, chain 1 of 2): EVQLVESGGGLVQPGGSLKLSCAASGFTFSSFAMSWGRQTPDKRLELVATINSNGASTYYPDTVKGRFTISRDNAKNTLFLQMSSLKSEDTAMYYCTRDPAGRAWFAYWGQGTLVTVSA
monoclonal antibody 4C3 (anti-Bla g 2), sequence (chain, as listed by the source, chain 2 of 2): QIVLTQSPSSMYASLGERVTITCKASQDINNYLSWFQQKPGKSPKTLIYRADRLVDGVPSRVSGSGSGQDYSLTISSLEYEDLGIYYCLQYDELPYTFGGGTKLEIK

[4] = target: monoclonal antibody 4C3 (anti-Bla g 2); assay: ELISA dose-response; conditions: chain shown with the change, read off a plot
[5] = competitor concentration 0.1 µg/ml, parent: est. 47
[6] = competitor concentration 1 µg/ml, parent: est. 5
[7] = allergen concentration 100 ng/ml, parent: est. 1.8
[8] = competitor concentration 100 µg/ml, parent: est. 0
[9] = allergen concentration 100 ng/ml (read on the curve line), parent: est. 1.8
[10] = competitor concentration 0.1 µg/ml, parent: est. 82
[11] = competitor concentration 1 µg/ml, parent: est. 32
[12] = competitor concentration 10 µg/ml, parent: est. 5
[13] = competitor concentration 100 µg/ml, parent: est. 1
[14] = allergen concentration 100 ng/ml, parent: est. 1.5
[15] = allergen concentration about 400 ng/ml (highest point of the series), parent: est. 1.9
[16] = competitor concentration 10 µg/ml, parent: est. 1
[17] = competitor concentration 0.1 µg/ml
[18] = competitor concentration 1 µg/ml
[19] = allergen concentration 100 ng/ml, parent: est. 1.3
[20] = allergen concentration 100 ng/ml, parent: est. 0.48

monoclonal antibody 7C11 (anti-Bla g 2), sequence (chain, as listed by the source, chain 2 of 2, other chains not shown): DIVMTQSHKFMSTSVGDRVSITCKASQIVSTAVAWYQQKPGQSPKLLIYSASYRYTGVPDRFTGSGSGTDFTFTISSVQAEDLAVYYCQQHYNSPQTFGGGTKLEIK

B2: recombinant Bla g 2-N93Q D68aA (protein)
chain: VPLYKLVHVFINTQYAGITKIGNQNFLTVFDSTSCNVVVASQECVGGACVCPNLQKYEKLKPKYISAGNVQVKFFDTGSAVGRGIEDSLTISQLTTSQQDIVLADELSQEVCILSADVVVGIAAPGCPNALKGKTVLENFVEENLIAPVFSIHHARFQDGEHFGEIIFGGSDWKYVDGEFTYVPLVGDDSWKFRLDGVKIGDTTVAPAGTQAIIDTSKAIIVGPKAYVNPINEAIGCVVEKTTTRRICKLDCSKIPSLPDVTFVINGRNFNISSQYYIQQNGNLCYSGFQPCGHSDHFFIGDFFVDHYYSEFNWENKTMGFGRSVESV
other: Biotinylated mAb 7C11 bound to Bla g 2 (%) [1, 5]: 98%
other: Biotinylated mAb 7C11 bound to Bla g 2 (%) [1, 6]: 82%
other: Biotinylated mAb 7C11 bound to Bla g 2 (%) [1, 8]: 5%
response (Absorbance (405 nm)) [2, 9]: 0.48
response (Absorbance (405 nm)) ([2]; allergen concentration about 4000 ng/ml (highest point of the series; curve at plateau)): 0.73

B5: recombinant Bla g 2-N93Q D248A (protein)
chain: B2 chain with A67D, D251A
other: Biotinylated mAb 4C3 bound to Bla g 2 (%) [3, 10]: 48%
other: Biotinylated mAb 4C3 bound to Bla g 2 (%) [3, 11]: 7%
response (Absorbance (405 nm)) [4, 14]: 1.8

B7: recombinant Bla g 2-N93Q E233A (protein)
chain: B2 chain with A67D, E233A
other: Biotinylated mAb 4C3 bound to Bla g 2 (%) [3, 11]: 58%
other: Biotinylated mAb 4C3 bound to Bla g 2 (%) [3, 12]: 15%
response (Absorbance (405 nm)) [4, 14]: 1

B10: natural Bla g 2 N93Q (protein)
chain: B2 chain with A67D
other: Biotinylated mAb 4C3 bound to Bla g 2 (%) [3, 17]: 82%
other: Biotinylated mAb 4C3 bound to Bla g 2 (%) [3, 18]: 32%
response (Absorbance (405 nm)) [4, 19]: 1.5

B11: recombinant Bla g 2-N93Q E86A (protein)
chain: B2 chain with A67D, E86A
other: Biotinylated mAb 7C11 bound to Bla g 2 (%) [1, 5]: 82%
other: Biotinylated mAb 7C11 bound to Bla g 2 (%) [1, 6]: 18%
response (Absorbance (405 nm)) [2, 7]: 1.5

B14: natural Bla g 2 N268Q (protein)
chain: B2 chain with A67D, Q93N, N271Q
other: Biotinylated mAb 4C3 bound to Bla g 2 (%) [3, 17]: 88%
other: Biotinylated mAb 4C3 bound to Bla g 2 (%) [3, 18]: 46%
other: Biotinylated mAb 4C3 bound to Bla g 2 (%) ([3]; competitor concentration 10 µg/ml): 7%
response (Absorbance (405 nm)) [4, 19]: 0.48

Other lines, results leading:

other: Biotinylated mAb 7C11 bound to Bla g 2 (%) [1, 5]: 82%
other: Biotinylated mAb 7C11 bound to Bla g 2 (%) [1, 6]: 13%
response (Absorbance (405 nm)) [2, 7]: 1.5
B1: recombinant Bla g 2-N93Q R83A (protein)
chain: B2 chain with A67D, R83A

other: Biotinylated mAb 4C3 bound to Bla g 2 (%) [3, 10]: 100%
other: Biotinylated mAb 4C3 bound to Bla g 2 (%) [3, 11]: 100%
other: Biotinylated mAb 4C3 bound to Bla g 2 (%) [3, 12]: 93%
other: Biotinylated mAb 4C3 bound to Bla g 2 (%) [3, 13]: 60%
response (Absorbance (405 nm)) [4, 14]: 0.14
response (Absorbance (405 nm)) [4, 15]: 0.27
B3: recombinant Bla g 2-N93Q K251A (protein)
chain: B2 chain with A67D, K254A

other: Biotinylated mAb 4C3 bound to Bla g 2 (%) [3, 10]: 100%
other: Biotinylated mAb 4C3 bound to Bla g 2 (%) [3, 11]: 100%
other: Biotinylated mAb 4C3 bound to Bla g 2 (%) [3, 12]: 69%
other: Biotinylated mAb 4C3 bound to Bla g 2 (%) [3, 13]: 22%
response (Absorbance (405 nm)) [4, 14]: 0.14
response (Absorbance (405 nm)) [4, 15]: 0.27
B4: recombinant Bla g 2-N93Q E233R; I199W (protein)
chain: B2 chain with A67D, I200W, E233R

other: Biotinylated mAb 7C11 bound to Bla g 2 (%) [1, 5]: 100%
other: Biotinylated mAb 7C11 bound to Bla g 2 (%) [1, 6]: 100%
other: Biotinylated mAb 7C11 bound to Bla g 2 (%) [1, 16]: 99%
other: Biotinylated mAb 7C11 bound to Bla g 2 (%) [1, 8]: 70%
response (Absorbance (405 nm)) [2, 7]: 0.12
response (Absorbance (405 nm)) ([2]; allergen concentration about 400 ng/ml (highest point of the series), parent: est. 1.8): 0.15
B6: recombinant Bla g 2-N93Q K132A (protein)
chain: B2 chain with A67D, K132A

other: Biotinylated mAb 7C11 bound to Bla g 2 (%) [1, 5]: 91%
other: Biotinylated mAb 7C11 bound to Bla g 2 (%) [1, 6]: 47%
other: Biotinylated mAb 7C11 bound to Bla g 2 (%) [1, 16]: 11%
response (Absorbance (405 nm)) [2, 9]: 0.3
response (Absorbance (405 nm)) ([2]; allergen concentration about 4000 ng/ml (highest point of the series)): 1.2
B8: recombinant Bla g 2-N93Q K65A (protein)
chain: B2 chain with K63A, A67D

other: Biotinylated mAb 4C3 bound to Bla g 2 (%) [3, 10]: 72%
response (Absorbance (405 nm)) [4, 14]: 1.7
B9: recombinant Bla g 2-N93Q E233R (protein)
chain: B2 chain with A67D, E233R

other: Biotinylated mAb 4C3 bound to Bla g 2 (%) ([3]; competitor concentration 0.1 µg/ml, parent: est. 88): 93%
other: Biotinylated mAb 4C3 bound to Bla g 2 (%) ([3]; competitor concentration 1 µg/ml, parent: est. 46): 82%
other: Biotinylated mAb 4C3 bound to Bla g 2 (%) ([3]; competitor concentration 10 µg/ml, parent: est. 7): 78%
other: Biotinylated mAb 4C3 bound to Bla g 2 (%) [3, 13]: 62%
response (Absorbance (405 nm)) [4, 20]: 0.2
response (Absorbance (405 nm)) ([4]; allergen concentration about 400 ng/ml (highest point of the series), parent: est. 1.1): 0.4
B12: recombinant Bla g 2-N268Q E233R; I199W (protein)
chain: B2 chain with A67D, Q93N, I200W, E233R, N271Q

response (Absorbance (405 nm)) [4, 20]: 1.2
B13: recombinant Bla g 2-N268Q E233R (protein)
chain: B2 chain with A67D, Q93N, E233R, N271Q

Reference: paper PMC3137622
